Results taken from the supplement of paper PMC9170038.

Tests used:
[1] = system: MS2 coat protein; experiment: apparent KD of MS2 coat protein; designed switch direction (-1 OFF switch, 1 ON switch): -1; higher = weaker reporter binding; details: Eterna round: R98
Description: (§1)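 RNA-MaP: designed FMN/MS2 RNA switches (84 nt design region) are transcribed on-chip within common flanks and titrated with SNAP-549-labelled MS2 coat protein (about 1-3000 nM) in 100 mM Tris pH 7.5, 80 mM KCl, 4 mM MgCl2, without or with 200 uM FMN. Median apparent KD per design; activation ratio = KD,OFF / KD,ON.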

[2] = system: MS2 coat protein; experiment: apparent KD of MS2 coat protein; higher = weaker reporter binding; details: Eterna round: R101
Description: as §1

| Sequence | apparent KD of MS2 coat protein ([1]; input ligand: FMN 200 uM) | apparent KD of MS2 coat protein ([1]; input ligand: none) | apparent KD of MS2 coat protein ([2]; input ligand: FMN 200 uM) | apparent KD of MS2 coat protein ([2]; input ligand: none) |
| --- | --- | --- | --- | --- |
| AAAAUAAAGGCAGGAUAUACAUGAAUAUAUAAUAUAAUAUAUAAUAUAACAUGAGGAUCACCCAUGUAGAAGGGCCAAAAUAAA [LRO026_Exclusion NG 2] | 88.1 nM | 46.4 nM | – | – |
| AAUAUAAAGAGCUGGUCUCAAAUAACAUGAGGAUCACCCAUGUAGGAUAUCAGCACGAUAAGUGCUGAGAAGGACAUCCAGCUC [Denovo 49] | 18.9 nM | 15.9 nM | – | – |
| GCACUGGAUGUAGGAUAUCAGGACGAUAAGUCCUGAGAAGGACAUGAGGAUCACCCAUGUCCCAAAACCAGUGCAUAUAAUAUA [Denovo Exng1 31] | 19.8 nM | 14.3 nM | – | – |
| GCCAUCGCAUGAGGAUAUGCUCCGGUUUCCGGAGCAGAAGGCAUGUCAUAAGACAUGAGGAUCACCCAUGUAGUUAAGAUGGCA [#HiddenHairpinInALoop - jl-sng1-2.00 jl mod - Original] (puzzle (switch architecture): Same State NG 1) | – | – | 10.6 nM | 283 nM |
| GCGCGCGCGUCAGGAUAUACAUGAGGAUCACCCAUGUGUGCGCGCGCGCGCGCGCGCGCGCGCGUGUAGAAGGGACGCUGUCGC [Incredible-Exclusion NG 2] | 20.6 nM | 14.4 nM | – | – |
| GGAGAUACAUGAGGAUCACCCAUGUAGGAUAUAUAGUAUAUAUAUAUUGAAAGAUAUAUAUAUAUAUAGAAGGGCGUGCACACC [#LOL-17] (puzzle (switch architecture): Small Loop Exclusion NG 3) | – | – | 6.32 nM | 8.77 nM |
| GGUCGACUUCAAGGAUAUGGACUGCAAAGCAGUCCAGAAGGUGAGGAUCACCCACCUACGGUCAGGAAACUGACCGAUCGACCA [#SharedSequence - ExNG1-4] (puzzle (switch architecture): Exclusion NG 1) | – | – | 12.3 nM | 10.5 nM |
| GUAGCAUUGAGAGGAUAUCCAUACCGGAAACGGACAUGAGGAUCACCCAUGUGGCGAAAGCCUUGGGAGAAGGCUCUAUGCUAC [S-state NG2 01] (puzzle (switch architecture): Same State NG 2) | – | – | – | 4.34 nM |
| UAAAUAAAUCCUAGAGGAUCACCCUAGGAUAUCACCGUCGAGGUGCCAUAAUGGCACCUCGACGGUGAGAAGGAGGGAAAUAAA [#SharedSequence - SLExNG3: 3] (puzzle (switch architecture): Small Loop Exclusion NG 3) | – | – | 11.6 nM | 9.97 nM |
| UAAAUAAAUCCUAGAGGAUCACCCUAGGAUAUCACCGUCGAGGUGCCAUAAUGGCACCUCGACGGUGAGAAGGAGGUUGAUAAA [#SharedSequence - SLExNG3: 6] (puzzle (switch architecture): Small Loop Exclusion NG 3) | – | – | 13 nM | 8.33 nM |
| UAAAUAGAUCCUAGAGGAUCACCCUAGGAUAUCACCGUCGAGGUGCCAUAAUGGCACCUCGACGGUGAGAAGGAGGUUGAUAAA [#SharedSequence - SLExNG3: 7] (puzzle (switch architecture): Small Loop Exclusion NG 3) | – | – | 19.9 nM | 11.4 nM |
| UAUUAUUUGGAGAAGGACAUGAGGAUCACCCAUGUCGCCGGGCCCGGGAAACCGGGCCCGGCCAUGUAGGAUAUCCGGAUGGUA [#This is a good prank 4] (puzzle (switch architecture): Inverted Exclusion NG 2) | – | – | 7.61 nM | 7.31 nM |
| UCAGGUCGGGAAGGAUAUCGGCCGCAGAGAGCUCGAGAAGGUCCCGACAUGAGGAUCACCCAUGUUGAAGGAUCCUAACGUGCC [Maonan] | 35.4 nM | 38.3 nM | – | – |
| UUACUCAUGUAAGGAUAUGCAGCCGAAACGGCUGCAGAAGGUACUAUAAUACAUGAGGAUCACCCAUGUAAAAUAAAUAAGGUU (puzzle (switch architecture): Same State NG 1) | – | – | 19.5 nM | 44.1 nM |
